The text below walks through data of US20120134993A1 (ZymoGenetics, published 2012).

Substitutions are numbered along the chain they refer to. Names and notes keep the numbering of the source.

The target of one assay is T1, recombinant human FGF-17 (human, UniProt O60258 23-216).
T1 sequence (looked up): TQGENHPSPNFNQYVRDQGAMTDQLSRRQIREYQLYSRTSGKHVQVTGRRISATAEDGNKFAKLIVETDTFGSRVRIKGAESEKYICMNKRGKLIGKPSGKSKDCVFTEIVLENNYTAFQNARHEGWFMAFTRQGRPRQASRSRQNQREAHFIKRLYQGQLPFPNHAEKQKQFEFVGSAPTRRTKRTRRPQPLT
The experiment in a line: direct binding ELISA, FGF-17 coated, FGFR-Fc titrated with heparin, anti-human Fc-HRP. As for the experimental part: (§1) To determine the binding capability of FGFR-Fc to their respective ligands, an ELISA was run. Recombinant human FGF-8b or FGF-17 (R&D Systems) was plated at 100 nM on a Nunc Maxisorp 96-well plate for 1 h at room temperature with shaking. The plates were blocked with BLOTTO (Thermo Fisher Scientific, Rockford, Ill.) for 1 h at room temperature, then washed 5 times with ELISA C buffer (137 mM NaCl, 2.7 mM KCl, 7.2 mM Na₂HPO₄, 1.5 mM KH₂PO₄, 0.05% (v/w) polysorbate 20, pH 7.2). FGFR-Fcs were diluted to 100 nM with PBS/0.1×BLOTTO/10 ug/ml porcine heparin (Sigma, St. Louis, Mo.) and then 1:2 serial dilutions were made, ending at 0.10 nM. 100 μL of FGFR-Fcs were plated and incubated at 4° C. overnight. The following day, the plates were washed 5 times with ELISA C and then incubated with 2.5 μg/mL horseradish peroxidase-conjugated anti-human Fc antibody (Jackson ImmunoResearch Laboratories, West Grove, Pa.) for 1 h at room temperature with shaking. After 5 washes with ELISA C, 100 μL of OPD in citrate buffer (5 mg of o-phenylenediamine in 63 mM sodium citrate, 37 mM citric acid, pH 5.0, 0.03% H₂O₂) was added for detection. After 2-5 minutes, the reaction was stopped with 1 N H₂SO₄. The plates were read at 490 nm using SoftMaxPro software.

For assay [1], the target named is T2, recombinant human FGF6 (human, UniProt P10767 83-208, limits assumed).
T2 sequence (looked up): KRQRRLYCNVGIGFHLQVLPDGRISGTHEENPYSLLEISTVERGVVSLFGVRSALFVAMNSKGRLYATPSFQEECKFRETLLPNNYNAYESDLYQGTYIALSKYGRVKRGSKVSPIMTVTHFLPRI
The experiment in a line: SPR (Biacore T100), FGFR-Fc captured on protein A, FGF6 analyte with heparin, bivalent analyte model (KD1). As for the experimental part:
(§2) Materials and Methods: Binding kinetics and affinity studies were performed on a Biacore T100™ system (GE Healthcare, Piscataway, N.J.). Methods for the Biacore T100™ were programmed using Biacore T100™ Control Software, v 2.0. Since each of the FGF receptor molecules contained a human Fc domain, biotinylated protein-A (Thermo Fisher Scientific Inc, Rockford, Ill.) was used as a capture reagent for these studies. Biotinylated protein-A was diluted to concentration of 50 μg/mL in HBS-EP buffer (10 mM HEPES, 150 mM NaCl, 3 mM EDTA, 0.05% Surfactant P20; GE Healthcare, Piscataway, N.J.), and then captured to all four flow cells of a SA (streptavidin) sensor chip. A density of approximately 1100 RU was obtained for each flow cell. Each FGF receptor molecule was subsequently captured via protein-A onto a separate flow cell of the SA chip at an approximate density of 150-250 RU. The Biacore instrument measures the mass of protein bound to the sensor chip surface, and thus, capture of the receptor was verified for each cycle.
(§3) For kinetic binding studies, serial 1:5 dilutions of FGF ligands were prepared from 200 nM-0.06 nM. These samples were injected over the surface and allowed to specifically bind to the FGF receptor captured on the sensor chip. Injections of each ligand concentration were performed with an association time of 7 minutes and dissociation time of 15 minutes. Kinetic binding studies were performed with a flow rate of 50 μL/min. All binding experiments were performed at 25° C. in HBS-P buffer (10 mM HEPES, 150 mM NaCl, 0.05% Surfactant P20, pH 7.4; GE Healthcare, Piscataway, N.J.), containing 50 μg/mL heparin (Calbiochem, La Jolla, Calif.).
(§4) Between cycles, the flow cell was washed with 20 mM hydrochloric acid to regenerate the surface. This wash step removed both the captured FGF receptor and any bound FGF ligand from the protein-A surface, and allowed for the subsequent binding of the next test sample. Data was compiled using the Biacore T100™ Evaluation software (version 2.0). Data was processed by subtracting reference flow cell and blank injections. Baseline stability was assessed to ensure that the regeneration step provided a consistent binding surface throughout the sequence of injections. Duplicate injection curves were checked for reproducibility. Binding curves were globally fit to the bivalent analyte model.

Assay [2] deals with T2, recombinant human FGF6. The experiment in a line: SPR (Biacore T100), FGFR-Fc captured on protein A, FGF6 analyte with heparin, bivalent analyte model (kd1). As for the experimental part: as §2, §3, §4
A further assay deals with human FGF-9 (human, UniProt P31371 4-208). The experiment in a line: cell-based or functional assay.
Assay [3] deals with T3, recombinant human FGF-8b (human, UniProt P55075-3 23-215).
T3 sequence (looked up): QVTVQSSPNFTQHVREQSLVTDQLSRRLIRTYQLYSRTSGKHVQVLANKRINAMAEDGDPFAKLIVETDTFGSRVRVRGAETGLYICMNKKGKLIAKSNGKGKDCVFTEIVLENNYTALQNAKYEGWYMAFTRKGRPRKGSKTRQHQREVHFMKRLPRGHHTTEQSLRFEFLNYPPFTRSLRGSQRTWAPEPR
The experiment in a line: direct binding ELISA, FGF-8b coated, FGFR-Fc titrated with heparin, anti-human Fc-HRP. As for the experimental part:
as §1

In assay [4] the target is T2, recombinant human FGF6. The experiment in a line: SPR (Biacore T100), FGFR-Fc captured on protein A, FGF6 analyte with heparin, bivalent analyte model (KA1). As for the experimental part:
as §2, §3, §4

Assay [5] addresses T2, recombinant human FGF6. The experiment in a line: SPR (Biacore T100), FGFR-Fc captured on protein A, FGF6 analyte with heparin, bivalent analyte model (ka1). The protocol: as §2, §3, §4
Assay [6] has as its target T3, recombinant human FGF-8b. The experiment in a line: cell-based or functional assay.

B1: FGFR3IIIc(23-375) Fc5, full-length FGFR3-Fc (A2257F) (Fc fusion)
chain: ESLGTEQRVVGRAAEVPGPEPGQQEQLVFGSGDAVELSCPPPGGGPMGPTVWVKDGTGLVPSERVLVGPQRLQVLNASHEDSGAYSCRQRLTQRVLCHFSVRVTDAPSSGDDEDGEDEAEDTGVDTGAPYWTRPERMDKKLLAVPAANTVRFRCPAAGNPTPSISWLKNGREFRGEHRIGGIKLRHQQWSLVMESVVPSDRGNYTCVVENKFGSIRQTYTLDVLERSPHRPILQAGLPANQTAVLGSDVEFHCKVYSDAQPHIQWLKHVEVNGSKVGPDGTPYVTVLKTAGANTTDKELEVLSLHNVTFEDAGEYTCLAGNSIGFSHHSAWLVVLPAEEELVEADEAGSVYAGEPKSSDKTHTCPPCPAPEAEGAPSVFLFPPKPKDTLMISRTPEVTCVVVDVSHEDPEVKFNWYVDGVEVHNAKTKPREEQYNSTYRVVSVLTVLHQDWLNGKEYKCKVSNKALPSSIEKTISKAKGQPREPQVYTLPPSRDELTKNQVSLTCLVKGFYPSDIAVEWESNGQPENNYKTTPPVLDSDGSFFLYSKLTVDKSRWQQGNVFSCSVMHEALHNHYTQKSLSLSPGK
notes: also called FGFR3 A2257F; FGFR3IIIc(23_375) C(Fc5)
B1: the IC50 in the assay with recombinant human FGF-17 is 20.1 nM; in the assay with recombinant human FGF-8b [3], 41.9 nM. Also, in the assay with recombinant human FGF6 [1], the Kd turned out to be 200 nM. Also, in the assay with recombinant human FGF6 [2], the koff amounted to 0.06 s⁻¹. Moreover, the “Proliferation IC50, FGF-9-stimulated HCO osteoblasts (3H-thymidine)” value with human FGF-9 came to 1.19 nM. Besides, the Ka with recombinant human FGF6 [4] came to 7e+06 M⁻¹. Besides, the kon in the assay with recombinant human FGF6 [5] was determined as 400000 M⁻¹ s⁻¹.

B2: FGFR3IIIc(23-375)(P250R) Fc5, full-length FGFR3-Fc P250R (A2259F) (Fc fusion)
chain: B1 chain with P228R
notes: also called FGFR3 A2259F; FGFR3IIIc(23_375) (P250R) C(Fc5)
In the case of B2, the IC50 with recombinant human FGF-17 was found to be 45.3 nM; with recombinant human FGF-8b [3], 52.6 nM. In the assay with recombinant human FGF6 [1], the Kd stood at 20 nM. In the assay with recombinant human FGF6 [2], the koff turned out to be 0.005 s⁻¹. Moreover, in the assay with human FGF-9, the “Proliferation IC50, FGF-9-stimulated HCO osteoblasts (3H-thymidine)” value is 1.14 nM. Moreover, in the assay with recombinant human FGF6 [4], the Ka is 6e+07 M⁻¹. For the same molecule, the kon with recombinant human FGF6 [5] turned out to be 300000 M⁻¹ s⁻¹.

B3: FGFR2alphaIIIc(145-377)(S252W) Fc5, truncated FGFR2-Fc S252W (A2560F) (Fc fusion)
chain: SENSNNKRAPYWTNTEKMEKRLHAVPAANTVKFRCPAGGNPMPTMRWLKNGKEFKQEHRIGGYKVRNQHWSLIMESVVPSDKGNYTCVVENEYGSINHTYHLDVVERWPHRPILQAGLPANASTVVGGDVEFVCKVYSDAQPHIQWIKHVEKNGSKYGPDGLPYLKVLKAAGVNTTDKEIEVLYIRNVTFEDAGEYTCLAGNSIGISFHSAWLTVLPAPGREKEITASPDYLEEPKSSDKTHTCPPCPAPEAEGAPSVFLFPPKPKDTLMISRTPEVTCVVVDVSHEDPEVKFNWYVDGVEVHNAKTKPREEQYNSTYRVVSVLTVLHQDWLNGKEYKCKVSNKALPSSIEKTISKAKGQPREPQVYTLPPSRDELTKNQVSLTCLVKGFYPSDIAVEWESNGQPENNYKTTPPVLDSDGSFFLYSKLTVDKSRWQQGNVFSCSVMHEALHNHYTQKSLSLSPGK
notes: also called FGFR2 A2560F; construct #1949
Take B3: in the assay with recombinant human FGF-17, the IC50 turned out to be 223 nM.

B4: FGFR3IIIc(143-375) Fc5, truncated FGFR3-Fc (A2518F) (Fc fusion)
chain: DTGVDTGAPYWTRPERMDKKLLAVPAANTVRFRCPAAGNPTPSISWLKNGREFRGEHRIGGIKLRHQQWSLVMESVVPSDRGNYTCVVENKFGSIRQTYTLDVLERSPHRPILQAGLPANQTAVLGSDVEFHCKVYSDAQPHIQWLKHVEVNGSKVGPDGTPYVTVLKTAGANTTDKELEVLSLHNVTFEDAGEYTCLAGNSIGFSHHSAWLVVLPAEEELVEADEAGSVYAGEPKSSDKTHTCPPCPAPEAEGAPSVFLFPPKPKDTLMISRTPEVTCVVVDVSHEDPEVKFNWYVDGVEVHNAKTKPREEQYNSTYRVVSVLTVLHQDWLNGKEYKCKVSNKALPSSIEKTISKAKGQPREPQVYTLPPSRDELTKNQVSLTCLVKGFYPSDIAVEWESNGQPENNYKTTPPVLDSDGSFFLYSKLTVDKSRWQQGNVFSCSVMHEALHNHYTQKSLSLSPGK
notes: This is the form with the second and third Ig-like domains; also called FGFR3 A2518F; FGFR3IIIc(143_375) C(Fc5)
Take B4: the results for the IC50 with recombinant human FGF-17 and with recombinant human FGF-8b [3] were 3.79 nM and 16.4 nM, respectively. In the assay with recombinant human FGF6 [1], the Kd was 300 nM. Further, the koff with recombinant human FGF6 [2] worked out at 0.06 s⁻¹. The “Proliferation IC50, FGF-9-stimulated HCO osteoblasts (3H-thymidine)” value in the assay with human FGF-9 stood at 0.77 nM. Besides, the Ka with recombinant human FGF6 [4] is 3e+06 M⁻¹. In addition, the kon in the assay with recombinant human FGF6 [5] worked out at 200000 M⁻¹ s⁻¹.

B5: FGFR3IIIc(143-375)(P250R) Fc5, truncated FGFR3-Fc P250R (A2519F) (Fc fusion)
chain: B4 chain with P108R
notes: also called FGFR3 A2519F; FGFR3IIIc(143_375) (P250R) C(Fc5)
As to B5, the results for the IC50 with recombinant human FGF-17 and with recombinant human FGF-8b [3] were 37.6 nM and 9.7 nM, respectively. The Kd with recombinant human FGF6 [1] turned out to be 20 nM. For the same molecule, the koff with recombinant human FGF6 [2] amounted to 0.004 s⁻¹. For the same molecule, the “Proliferation IC50, FGF-9-stimulated HCO osteoblasts (3H-thymidine)” value with human FGF-9 was 0.99 nM. Moreover, the “Proliferation IC50, FGF8b-stimulated LNCap cells (3H-thymidine)” value in the assay with recombinant human FGF-8b [6] came to 0.01 nM. The Ka in the assay with recombinant human FGF6 [4] was 5e+07 M⁻¹. In addition, the kon in the assay with recombinant human FGF6 [5] turned out to be 200000 M⁻¹ s⁻¹.
